This is an account of results in ChEMBL document CHEMBL2074458, “Fluorescence-based assay for the interaction of small molecules with the human renal organic anion transporter 1” (Anal Biochem, 2000).

Usually Km stands for the concentration of substrate that gives half-maximal velocity.

Substrate in the data set: O=C(O)c1ccc(C(=O)O)c(-c2c3ccc(=O)cc-3oc3cc(O)ccc23)c1
The experiment in a line: TP_TRANSPORTER: uptake in OAT1-expressing CHO cells. The data set is classed as functional, cell-based.

B1: Solute carrier family 22 member 6 (Homo sapiens) (protein)
chain: MAFNDLLQQVGGVGRFQQIQVTLVVLPLLLMASHNTLQNFTAAIPTHHCRPPADANLSKNGGLEVWLPRDRQGQPESCLRFTSPQWGLPFLNGTEANGTGATEPCTDGWIYDNSTFPSTIVTEWDLVCSHRALRQLAQSLYMVGVLLGAMVFGYLADRLGRRKVLILNYLQTAVSGTCAAFAPNFPIYCAFRLLSGMALAGISLNCMTLNVEWMPIHTRACVGTLIGYVYSLGQFLLAGVAYAVPHWRHLQLLVSAPFFAFFIYSWFFIESARWHSSSGRLDLTLRALQRVARINGKREEGAKLSMEVLRASLQKELTMGKGQASAMELLRCPTLRHLFLCLSMLWFATSFAYYGLVMDLQGFGVSIYLIQVIFGAVDLPAKLVGFLVINSLGRRPAQMAALLLAGICILLNGVIPQDQSIVRTSLAVLGKGCLAASFNCIFLYTGELYPTMIRQTGMGMGSTMARVGSIVSPLVSMTAELYPSMPLFIYGAVPVAASAVTVLLPETLGQPLPDTVQDLESRWAPTQKEAGIYPRKGKQTRQQQEHQKYMVPLQASAQEKNGL
With B1, the Km is 3.95 µM.
